Reference: the nanobody polyreactivity screen of Harvey et al. (2022)

Assay: yeast display, Sf9 membrane polyspecificity reagent, FACS + sequencing; frameworks hold sequencing errors
Summary of the method: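 After 36–48 hours of galactose induction, yeast (Saccharomyces cerevisiae BJ5465) displaying a synthetic nanobody library were stained at 4 °C for 1 hour with 10% biotinylated, detergent-solubilized Sf9 membrane reagent. Streptavidin microbeads enriched the stained cells before FACS sorting into low and high (top ~1%) gates on anti-HA and streptavidin fluorescence. Each clone's polyreactivity label reflects its gate of origin.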

Sequence | polyreactivity (PSR sort gate)
QVQLVESGGGLVQAGGSLRLSCAASGSIFGPYAMGWYRQAPGKERELVATITSGGRTYYADSVKGRFTISRDNAKNTVYFQLNSLKPEDTAVYYCAAAGKGRYHVRSTMDYWGQGTQVTVSS | high polyreactivity
QVQLVESGGGLVQAGGSLRLSCAASGSIFGPYMGWYRQAPGKERELVASVVSTYYADSVKGRFTISRDNAKNTVYLQMNSLKPEDTAVYYCNTQDTKNKSSVFVPSDYWGQGTQVTVSS | low polyreactivity
QVQLVESGGGLVQAGGSLRLSCAASGSIFGQNAMGWYRQAPGKEREMVDAITSGAGITYYADSVKGRFTISRDNAKNTVYLQMNSLKPEDTAVYYCNAVPSWSPSALFDYWGQGTQVTVAS | low polyreactivity
QVQLVESGGGLVQAGGSLRLSCAASGSIFGQYAMGWYRQAPGKERELVAAITWDGTSTYYADSVKGRFTISRDNAKNTVYLQMNSLKPEDTAVYYCAADFYPYSWEEVDYWGQGTQVTVSS | low polyreactivity
QVQLVESGGGLVQAGGSLRLSCAASGSIFGQYTMGWYRQAPGKERELVAVISTRGGSTYYADSVKGRFTISRDNAKNTVYLQMNSLKPEDTAVYYCAASAFRGREMDYWGQGTQVTVSS | low polyreactivity
QVQLVESGGGLVQAGGSLRLSCAASGSIFGRNAMGGYRQAPGSERELVARISSRGGSTYYADSVKGRFTISRDNAKNTVDLQMNSLKPEDTAVYYCNRDRTSQTNDYWGQGTQVTVSS | high polyreactivity
QVQLVESGGGLVQAGGSLRLSCAASGSIFGRNAMGWYIQAPGKERELVAAINSGGSTNYADSVKGRFTISRDNAKNTVYLQMNSLKPEDTAVYFCAARTYSSGRYYGYVAFYYWGQGTQVTVSS | high polyreactivity
QVQLVESGGGLVQAGGSLRLSCAASGSIFGRNAMGWYRHAPGKERELVARISSRGGSTYYADSVKGRFTISRDNAKKTVYLQMNSLKPEDTAVYYCNRDRTWQTNDYWGQGTQVTVSS | high polyreactivity
QVQLVESGGGLVQAGGSLRLSCAASGSIFGRNAMGWYRQAPGKERELVAAINYSGTSTYYADSVKGRFTISRDNAKNTVYLQMNSLKPEDTAVYYCAKARHKSPTYTHDSWGQGTQVTVSS | high polyreactivity
QVQLVESGGGLVQAGGSLRLSCAASGSIFGRNAMGWYRQAPGKERELVAAITGSTYYADSVKGRFTISRDNAKNTVYLQMNSLKPEDTAVYYCNADYDVGWTYDTEYNYWGQGTQVTVSS | low polyreactivity
QVQLVESGGGLVQAGGSLRLSCAASGSIFGRNAMGWYRQAPGKERELVAVITSTGGSTYYADSVKGRFTISRDNAKNTVYLQMNSLKPEDTAVYYCAARTRYRYGYWGQGTQVTVSS | high polyreactivity
QVQLVESGGGLVQAGGSLRLSCAASGSIFGRNDMGWYRQAPRKERELLARITRGGSTNYADSVKGRVTISRDNAKYTVYLQMNSLKPEDTAVYYCAAGARQYRGVPDRYGYWGQGTQVTVSS | low polyreactivity
QVQLVESGGGLVQAGGSLRLSCAASGSIFGRYAMGWYRQAPGKEMELVAAISTGDSTYYADSVKGRFTISRDNAKNTVYLQMNSLKPEDTAVYYCNRRGRRGYDYWGQGTQVTVSS | high polyreactivity
QVQLVESGGGLVQAGGSLRLSCAASGSIFGRYAMGWYRQAPGKERELVAAISSSGGRTYYADSVNGRFTISRDNAKNTVYLQMNSLKPEDTAVYYCNAGTPYRGDYWGQGTQVTVSS | high polyreactivity
QVQLVESGGGLVQAGGSLRLSCAASGSIFGRYAMGWYRQAPGKERELVAAITFTGGSTYYADSVKGRFTISRDNAKNTVYLQMNSLKPEDTAVYYCAARSLFYRGYGYWGQGTQVTVSS | high polyreactivity
QVQLVESGGGLVQAGGSLRLSCAASGSIFGRYAMGWYRQAPGKERELVAAITRSGVSTYYADSVKGRFTISRDNAKNTVYLQMNSLKPEDTAVYYCNAYYPIRSSPNGYYYWGQGTQVTVSS | high polyreactivity

Sequence | polyreactivity (PSR sort gate)
QVQLVESGGGLVQAGGSLRLSCAASGSIFGSNAMGWYRQAPGKERELVAAITNTGRTNYADSVKGRFTISRDNAKNTVYLQMNSLKPEDTAVYYCNTDGYEFTHFAAGSGWRFDYWGLGTQVTVSS | low polyreactivity
QVQLVESGGGLVQAGGSLRLSCAASGSIFGSNMGWYRQAPGKERELVAAISSRGGRTYYADSVKGRFTISRVNAKNTVYLQMNSQKPEDTAVYYCATRTFRGGRGYEYWGQGTQVTVSS | high polyreactivity
QVQLVESGGGLVQAGGSLRLSCAASGSIFGSYAMGWYRPAPGKERELVAGITYRGSSTYYADSVKGRFTISRDNAKNTVYLQMNSLKPEDTAVYYCAADSVFDEYDYWGQGTQVTVSS | low polyreactivity
QVQLVESGGGLVQAGGSLRLSCAASGSIFGSYAMGWYRQAPGKERELVAAITYSGGSTYYADSVKGRFTISRDNAKNTVYLHMNSLKPEDTAVYYCAADYSFYWAYFDYWGQGTQVTVSS | high polyreactivity
QVQLVESGGGLVQAGGSLRLSCAASGSIFGTNAMGWYRPAPGKERELVAAINWSGGTTYYADSVKGRFTISRDIAKNTVYLQMNSLKPEDTAVFYCNVGYPSIYDYWGQGTQVTVSS | low polyreactivity
QVQLVESGGGLVQAGGSLRLSCAASGSIFGTNAMGWYRQAPGKERELVAAITGRGGSTYYADSVKGRFTISRDNAKNTVYLQMNSLKPEDTAVYYCAVKISTYTYGYWGQGTQVTVSS | high polyreactivity
QVQLVESGGGLVQAGGSLRLSCAASGSIFGTNAMGWYRQAPGKERELVATITSAGSTYYADSVKGRFTISRYNAKNTVYLQMNSLKPEDTAVYYCARQATGYVYREYEYWGQGTQVTVSS | low polyreactivity
QVQLVESGGGLVQAGGSLRLSCAASGSIFGTNTMGWYRQAPGKERELVAAIRLSDSSTYYADSVKGRFTISRDNAKNTVYLQMNSLKPEDTAVYYCAVDYRAYHYYRYDYWGQGTQVTVSS | low polyreactivity
QVQLVESGGGLVQAGGSLRLSCAASGSIFGTYAMGWYIQAPGKEREFVAAISWSDGSTYYADSVKGRFTISRDNAKNTVYLQMNSLKPEDTAVYYCAAGPSQYTEFDYWGQGTQVTVSS | low polyreactivity
QVQLVESGGGLVQAGGSLRLSCAASGSIFGVNAMGWYRQAPGKERELVASISLSDDRTYYADSVKGRFTISRDNAKNTVYLQMNSLKPEDTAVYYCARRILWYWDVYPSLAEYDYWGQGTQVTVSS | low polyreactivity
QVQLVESGGGLVQAGGSLRLSCAASGSIFGVYAMGWYRQAPGKERELVAAIDSGGDTYYADSVKGRFTISRDNAKNTVYLQMNSLKPEDTAVYYCNAPYNRATYNYWGQGTQVTVSS | high polyreactivity
QVQLVESGGGLVQAGGSLRLSCAASGSIFGVYAMGWYRQAPGKERGLVARISGSSGSTRYADSVKGRFTISRDNAKNTVYLQMNSLKPEDTAVYYCAARAIFRQGDRIYDSWGQGTQVTVSS | high polyreactivity
QVQLVESGGGLVQAGGSLRLSCAASGSIFGVYDMGWYRQAPGKEREVVAVINSNGGSTYYADSVKGRFTISRDNAKNTVYLQMNSLKPEDTAVYYCAADYQSYVYIGYGYWGQGTQVTVSS | low polyreactivity
QVQLVESGGGLVQAGGSLRLSCAASGSIFGVYTMGWYRQAPGKERELVAAITSAGSTYADSVKGRFTISRDNAKNTVYLQMNSLKPEDTEVFYCNAQSVLLSLRVELREPHEYWGQGTQVTVSS | low polyreactivity
QVQLVESGGGLVQAGGSLRLSCAASGSIFGWYAKGLYRQAPGKEREFVAVISSSGDSTFYADSVKGRFTISRDNAKNTVYLQMNSLKPEDTAVYYCAAYYYYYYWPQTAYWQGDYWGHGTQVTVSS | high polyreactivity
QVQLVESGGGLVQAGGSLRLSCAASGSIFGYNAMGWSRPAPGKERELVAAITSSGGSTYYADSVKGRFTISRDNAKNTVYLQMNSLKPEDTAVYYCNARDWYIVWYDYWGQGTQVTVSS | low polyreactivity
